In IntAct's records for PubMed 24636949:

B1: Unconventional myosin-Ic (Homo sapiens), O00159-2 (parent)
chain: MESALTARDRVGVQDFVLLENFTSEAAFIENLRRRFRENLIYTYIGPVLVSVNPYRDLQIYSRQHMERYRGVSFYEVPPHLFAVADTVYRALRTERRDQAVMISGESGAGKTEATKRLLQFYAETCPAPERGGAVRDRLLQSNPVLEAFGNAKTLRNDNSSRFGKYMDVQFDFKGAPVGGHILSYLLEKSRVVHQNHGERNFHIFYQLLEGGEEETLRRLGLERNPQSYLYLVKGQCAKVSSINDKSDWKVVRKALTVIDFTEDEVEDLLSIVASVLHLGNIHFAANEESNAQVTTENQLKYLTRLLSVEGSTLREALTHRKIIAKGEELLSPLNLEQAAYARDALAKAVYSRTFTWLVGKINRSLASKDVESPSWRSTTVLGLLDIYGFEVFQHNSFEQFCINYCNEKLQQLFIELTLKSEQEEYEAEGIAWEPVQYFNNKIICDLVEEKFKGIISILDEECLRPGEATDLTFLEKLEDTVKHHPHFLTHKLADQRTRKSLGRGEFRLLHYAGEVTYSVTGFLDKNNDLLFRNLKETMCSSKNPIMSQCFDRSELSDKKRPETVATQFKMSLLQLVEILQSKEPAYVRCIKPNDAKQPGRFDEVLIRHQVKYLGLLENLRVRRAGFAYRRKYEAFLQRYKSLCPETWPTWAGRPQDGVAVLVRHLGYKPEEYKMGRTKIFIRFPKTLFATEDALEVRRQSLATKIQAAWRGFHWRQKFLRVKRSAICIQSWWRGTLGRRKAAKRKWAAQTIRRLIRGFVLRHAPRCPENAFFLDHVRTSFLLNLRRQLPQNVLDTSWPTPPPALREASELLRELCIKNMVWKYCRSISPEWKQQLQQKAVASEIFKGKKDNYPQSVPRLFISTRLGTDEISPRVLQALGSEPIQYAVPVVKYDRKGYKPRSRQLLLTPNAVVIVEDAKVKQRIDYANLTGISVSSLSDSLFVLHVQRADNKQKGDVVLQSDHVIETLTKTALSANRVNSININQGSITFAGGPGRDGTIDFTPGSELLITKAKNGHLAVVAPRLNSR

Variants of: B1
Details: with 1433b_human YWHAB

| effect of a mutation on the interaction | Variant |
| --- | --- |
| increasing interaction strength | S701E |
| disrupting interaction strength | S701A |
